Variants at the floor of the assay were thinned out.
B1: TPR 5TU (parent)
chain: GGAUCUUCUCGAUCUAACAAAAAAGACAAAUCUGCCACAAAGCUUGAGAGCAUCUUCGGAUGCAGAGGCGGCAGCCUUCGGUGGCGCGAUAGCGCCAACGUUCUCAACUAUGACACGCAAAACGCGUGCUCCGUUGAAUGGAGUUUAUCAUG

Variants of: B1
Assay: polymerase ribozyme fitness, log enrichment relative to wild type (log ratio); higher = more active; in vitro selection for triplet polymerase activity
Summary of the method: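 For each subunit of a heterodimeric triplet polymerase ribozyme, a mutant library was built by PCR and transcribed, then taken through a single in vitro selection round in triplicate. Selection involved annealing to a biotinylated primer, the partner subunit and triplets, incubation frozen at −7 °C, gel excision of extended constructs, capture on streptavidin beads and RT-PCR. Genotypes were retained after Illumina sequencing of inputs and outputs only with ≥10 input reads and ≥1 read in each output. Fitness is defined as the logarithm of a genotype's enrichment relative to wild-type enrichment, using inverse-variance-weighted averages across replicates, with the logarithm taken to base 2.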

G59C G88C A106U C108U and A26G C38A A60U A64C C76U cannot be ordered by “polymerase ribozyme fitness (log ratio)” value: no more than -4.2 for the first, no more than -4.2 for the second.

First: U6G C85A C87G A98U A106C U148A
Second: C51G G58C
The “polymerase ribozyme fitness (log ratio)” value of the first is lower: no more than -4.2 for the first, -1.42 for the second.

Going from A26C C96A A120G G124U to A91U A97G, the “polymerase ribozyme fitness (log ratio)” value falls from -2.02 to -3.67.

Compared with A16U A47U U55A C87U, U31C C54U G71U C96U is lower in “polymerase ribozyme fitness (log ratio)” value: -2.97 for the first, -3.79 for the second.

Going from A41C A137G C149U to C76A A91U, the “polymerase ribozyme fitness (log ratio)” value falls from -2.44 to no more than -4.2.

First: C118G C129U
Second: G117A C123A A150G
The “polymerase ribozyme fitness (log ratio)” value of the first is lower: -1.77 for the first, -1.18 for the second.

C35G C76A and C8U A16G A21G A40U are within 0.2 log units of each other in “polymerase ribozyme fitness (log ratio)” value: -4.13 for the first, -4.04 for the second.

A24U U31G A52C G65A G84C C87U A119G and A26G C36U G65C A91G U111G C149A cannot be ordered by “polymerase ribozyme fitness (log ratio)” value: no more than -4.2 for the first, no more than -4.2 for the second.

Going from U7C C85U U145A to C8U A16C U53A C54A G71C G141C U148C C149U, the “polymerase ribozyme fitness (log ratio)” value falls from -2.42 to no more than -4.2.

Compared with A3U G62U G94A, G48A A52C C85U is lower in “polymerase ribozyme fitness (log ratio)” value: -1.08 for the first, -2.93 for the second.

Compared with C8A A26G G59U A89G C93G C95U C108U C132A, A49C U109G G152U is higher in “polymerase ribozyme fitness (log ratio)” value: no more than -4.2 for the first, -4.18 for the second.

G74C C76A C87U C114U C116U and A24U A26U U55C A91G cannot be ordered by “polymerase ribozyme fitness (log ratio)” value: no more than -4.2 for the first, no more than -4.2 for the second.

First: A52U G83A C95U
Second: C54A C99U
The “polymerase ribozyme fitness (log ratio)” value of the first is lower: -3.78 for the first, -1.85 for the second.

Compared with A24G C54A, G86U A89C A119C is lower in “polymerase ribozyme fitness (log ratio)” value: -3.54 for the first, -3.83 for the second.

First: C85A A150C
Second: C8A A21C
The “polymerase ribozyme fitness (log ratio)” value of the first is lower: no more than -4.2 for the first, -3.76 for the second.

Going from A49C A106G to C114U U148G, the “polymerase ribozyme fitness (log ratio)” value rises from -4.12 to -3.06.

First: C14G A26U A30U C75A C93U G141A U148G U151G
Second: U82A U127C G152U
The “polymerase ribozyme fitness (log ratio)” value of the first is lower: no more than -4.2 for the first, -3.97 for the second.

A49C A97G U148C and C57G U78A G84A G94C C103U C105A G133U G140U U144C cannot be ordered by “polymerase ribozyme fitness (log ratio)” value: no more than -4.2 for the first, no more than -4.2 for the second.

A12U A37G C69G A122C G126A A150G and A29C A40U A41C G84A G141A cannot be ordered by “polymerase ribozyme fitness (log ratio)” value: no more than -4.2 for the first, no more than -4.2 for the second.

Going from C75U A122G G124A C149U to A49C C103G A110C, the “polymerase ribozyme fitness (log ratio)” value falls from -1.15 to no more than -4.2.

Going from A41C C87G to U55A G84A G86A C93U C105U, the “polymerase ribozyme fitness (log ratio)” value rises from no more than -4.2 to -1.1.

A20U G48A G84A G152C and G70U G80U A119G cannot be ordered by “polymerase ribozyme fitness (log ratio)” value: no more than -4.2 for the first, no more than -4.2 for the second.

Going from A60C G80A to A16C G94U A107G C116A C132U A142G, the “polymerase ribozyme fitness (log ratio)” value falls from -2.27 to no more than -4.2.

Compared with C32G C79U C96G A142C, G25C A39C C76A C79U C87A A110U C114U is lower in “polymerase ribozyme fitness (log ratio)” value: -3.79 for the first, no more than -4.2 for the second.

First: A52G G141A
Second: U15G A16C A30C A47C C85A G133C G143C A150U
The “polymerase ribozyme fitness (log ratio)” value of the first is higher: -1.24 for the first, no more than -4.2 for the second.

Compared with U7C A24U C96U A107G C125G U144C U151C, A73G C95U is higher in “polymerase ribozyme fitness (log ratio)” value: -4.07 for the first, -0.166 for the second.

U9A G50A G94U and A20G C27A A47G G92A cannot be ordered by “polymerase ribozyme fitness (log ratio)” value: no more than -4.2 for the first, no more than -4.2 for the second.

C51A C57G G68C A73C C76G G86U G100C A120G A122C U134A and A49C A52U A138U cannot be ordered by “polymerase ribozyme fitness (log ratio)” value: no more than -4.2 for the first, no more than -4.2 for the second.

Going from C57U C76A C93U C116A U151G to U55G G86A U139G, the “polymerase ribozyme fitness (log ratio)” value rises from no more than -4.2 to -1.96.

Going from G59A G86A to G59A U78G A91U U102G, the “polymerase ribozyme fitness (log ratio)” value falls from -2.02 to no more than -4.2.

Going from A17U C54A G92U C149U to U6G U13G A16G C85G G86A A142G, the “polymerase ribozyme fitness (log ratio)” value falls from -2.92 to no more than -4.2.

Compared with U44A G50U G59A C85A C99G G126U, U15A G94A is higher in “polymerase ribozyme fitness (log ratio)” value: no more than -4.2 for the first, -0.258 for the second.

G94C A107G and A49G U101C C114G U134C are the same in “polymerase ribozyme fitness (log ratio)” value: -3.89 for the first, -3.89 for the second.

Compared with C85A U135G A137U, A22U U61A C96U is higher in “polymerase ribozyme fitness (log ratio)” value: no more than -4.2 for the first, -0.569 for the second.

Compared with A21G G84U C118U, U4C A49C A52C C99A C132U G136U G140U is lower in “polymerase ribozyme fitness (log ratio)” value: -1.39 for the first, no more than -4.2 for the second.

Compared with U45A A47U G65C A66U G86C C87G C131G, A19U A21G U45G U56A G92U is higher in “polymerase ribozyme fitness (log ratio)” value: no more than -4.2 for the first, -1.94 for the second.

First: G48C G50A U55A
Second: C18U C51U A89U C96A
The “polymerase ribozyme fitness (log ratio)” value of the first is lower: -3.03 for the first, -2.24 for the second.

Compared with U13C C93U U134A, G59U G88C C116G is lower in “polymerase ribozyme fitness (log ratio)” value: -3.08 for the first, -3.85 for the second.

G34U A41G A47C C116U and C10A A12G A22G U56A C85G cannot be ordered by “polymerase ribozyme fitness (log ratio)” value: no more than -4.2 for the first, no more than -4.2 for the second.

Compared with G59A A60C, G50A A52C is lower in “polymerase ribozyme fitness (log ratio)” value: -1.48 for the first, -3.13 for the second.

First: G80A G124A
Second: A40C A98U A122U
The “polymerase ribozyme fitness (log ratio)” value of the first is lower: 0.289 for the first, 0.766 for the second.

U7A A121U A138G and C85G U109G U144C cannot be ordered by “polymerase ribozyme fitness (log ratio)” value: no more than -4.2 for the first, no more than -4.2 for the second.

From the RNAGym collection of RNA variant scans (doi:10.1073/pnas.2313332121)
